Patent US20250084142A1 (INTARCIA THERAPEUTICS, published 2025)
Starred links: 1 amine or outer side, 2 acyl side, 3 side chain; linkers in the order of their positions; H or OH if unused. Non-standard residues stand in square brackets, D forms with d. Groups on a side chain read outwards from the residue. No end group written: not given here. *: point of attachment. C20 diacid = O=C(O)CCCCCCCCCCCCCCCCCCC(=O)*; C19 diacid = O=C(O)CCCCCCCCCCCCCCCCCC(=O)*; C18 diacid = O=C(O)CCCCCCCCCCCCCCCCC(=O)*; γGlu = O=C(O)[C@H](CCC(=O)[*:2])N[*:1]; hSer = N[C@@H](CCO)C(=O)O; αMeS = C[C@](N)(CO)C(=O)O

T1: NPY2R
T1 sequence (P49146 1-381, species assumed, looked up): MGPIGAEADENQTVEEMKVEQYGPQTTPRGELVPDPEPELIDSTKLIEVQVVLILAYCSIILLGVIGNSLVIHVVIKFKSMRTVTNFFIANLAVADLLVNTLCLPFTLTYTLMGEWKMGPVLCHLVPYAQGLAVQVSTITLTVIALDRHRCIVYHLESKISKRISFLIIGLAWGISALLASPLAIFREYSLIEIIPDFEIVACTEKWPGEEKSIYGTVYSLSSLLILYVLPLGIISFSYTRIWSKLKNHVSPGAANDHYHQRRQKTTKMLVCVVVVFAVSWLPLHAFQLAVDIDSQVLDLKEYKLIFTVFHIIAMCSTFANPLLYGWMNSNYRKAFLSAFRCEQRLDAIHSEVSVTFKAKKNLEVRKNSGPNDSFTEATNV

T2: NPY5R
T2 sequence (Q15761 1-445, species assumed, looked up): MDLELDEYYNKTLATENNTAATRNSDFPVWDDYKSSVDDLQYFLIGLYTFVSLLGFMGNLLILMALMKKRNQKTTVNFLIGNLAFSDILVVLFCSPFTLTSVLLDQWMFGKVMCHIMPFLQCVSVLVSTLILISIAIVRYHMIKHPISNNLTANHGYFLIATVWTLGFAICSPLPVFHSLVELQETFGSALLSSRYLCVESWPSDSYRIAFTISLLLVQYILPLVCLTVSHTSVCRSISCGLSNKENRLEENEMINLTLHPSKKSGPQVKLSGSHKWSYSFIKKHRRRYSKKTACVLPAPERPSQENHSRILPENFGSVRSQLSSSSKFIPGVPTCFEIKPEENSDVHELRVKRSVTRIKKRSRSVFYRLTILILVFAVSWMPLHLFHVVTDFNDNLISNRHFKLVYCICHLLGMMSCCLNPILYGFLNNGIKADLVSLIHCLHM


Assays:
[1] = target: T1, NPY2R; experiment: cell-based or functional assay
[2] = target: T2, NPY5R; experiment: cell-based or functional assay

Binder | NPY2R pEC50 [1] | NPY5R pEC50 [2]
PKPEAPGK([γGlu-γGlu-C20 diacid])DASPEEW[hSer]RYYKDLRHYLNWLTRQRF-NH2 [Compound A30] | 10.3 -Log(EC50, M) | 8.5 -Log(EC50, M)
PKPEKPGKDASPKEWNRYYK([γGlu-γGlu-C20 diacid])DLRHYLNWLTRQRF-NH2 (N-terminus assumed; SMILES CC(C)C[C@H](NC(=O)[C@H](CC(=O)O)NC(=O)[C@H](CCCCNC(=O)CC[C@H](NC(=O)CC[C@H](NC(=O)CCCCCCCCCCCCCCCCCCC(=O)O)C(=O)O)C(=O)O)NC(=O)[C@H](Cc1ccc(O)cc1)NC(=O)[C@H](Cc1ccc(O)cc1)NC(=O)[C@H](CCCNC(=N)N)NC(=O)[C@H](CC(N)=O)NC(=O)[C@H](Cc1c[nH]c2ccccc12)NC(=O)[C@H](CCC(=O)O)NC(=O)[C@H](CCCCN)NC(=O)[C@@H]1CCCN1C(=O)[C@H](CO)NC(=O)[C@H](C)NC(=O)[C@H](CC(=O)O)NC(=O)[C@H](CCCCN)NC(=O)CNC(=O)[C@@H]1CCCN1C(=O)[C@H](CCCCN)NC(=O)[C@H](CCC(=O)O)NC(=O)[C@@H]1CCCN1C(=O)[C@H](CCCCN)NC(=O)[C@@H]1CCCN1)C(=O)N[C@@H](CCCNC(=N)N)C(=O)N[C@@H](Cc1c[nH]cn1)C(=O)N[C@@H](Cc1ccc(O)cc1)C(=O)N[C@@H](CC(C)C)C(=O)N[C@@H](CC(N)=O)C(=O)N[C@@H](Cc1c[nH]c2ccccc12)C(=O)N[C@@H](CC(C)C)C(=O)N[C@H](C(=O)N[C@@H](CCCNC(=N)N)C(=O)N[C@@H](CCC(N)=O)C(=O)N[C@@H](CCCNC(=N)N)C(=O)N[C@@H](Cc1ccccc1)C(N)=O)[C@@H](C)O) [Compound A28] | 10.5 -Log(EC50, M) | 8.8 -Log(EC50, M)
PKPEAPGK([γGlu-γGlu-C20 diacid])DASPEEW[αMeS]RYYKDLRHYLNWLTRQRF-NH2 [Compound A31] | 10.4 -Log(EC50, M) | 8.7 -Log(EC50, M)
PKPEKPGK([γGlu-γGlu-C20 diacid])DASPKEWNRYYKDLRHYLNWLTRQRF-NH2 (N-terminus assumed; SMILES CC(C)C[C@H](NC(=O)[C@H](CC(=O)O)NC(=O)[C@H](CCCCN)NC(=O)[C@H](Cc1ccc(O)cc1)NC(=O)[C@H](Cc1ccc(O)cc1)NC(=O)[C@H](CCCNC(=N)N)NC(=O)[C@H](CC(N)=O)NC(=O)[C@H](Cc1c[nH]c2ccccc12)NC(=O)[C@H](CCC(=O)O)NC(=O)[C@H](CCCCN)NC(=O)[C@@H]1CCCN1C(=O)[C@H](CO)NC(=O)[C@H](C)NC(=O)[C@H](CC(=O)O)NC(=O)[C@H](CCCCNC(=O)CC[C@H](NC(=O)CC[C@H](NC(=O)CCCCCCCCCCCCCCCCCCC(=O)O)C(=O)O)C(=O)O)NC(=O)CNC(=O)[C@@H]1CCCN1C(=O)[C@H](CCCCN)NC(=O)[C@H](CCC(=O)O)NC(=O)[C@@H]1CCCN1C(=O)[C@H](CCCCN)NC(=O)[C@@H]1CCCN1)C(=O)N[C@@H](CCCNC(=N)N)C(=O)N[C@@H](Cc1c[nH]cn1)C(=O)N[C@@H](Cc1ccc(O)cc1)C(=O)N[C@@H](CC(C)C)C(=O)N[C@@H](CC(N)=O)C(=O)N[C@@H](Cc1c[nH]c2ccccc12)C(=O)N[C@@H](CC(C)C)C(=O)N[C@H](C(=O)N[C@@H](CCCNC(=N)N)C(=O)N[C@@H](CCC(N)=O)C(=O)N[C@@H](CCCNC(=N)N)C(=O)N[C@@H](Cc1ccccc1)C(N)=O)[C@@H](C)O) [Compound A27] | 10.7 -Log(EC50, M) | 8.9 -Log(EC50, M)
PKPEKPGEDASPKEWNRYYK([γGlu-γGlu-C20 diacid])DLRHYLNWLTRQRF-NH2 (N-terminus assumed; SMILES CC(C)C[C@H](NC(=O)[C@H](CC(=O)O)NC(=O)[C@H](CCCCNC(=O)CC[C@H](NC(=O)CC[C@H](NC(=O)CCCCCCCCCCCCCCCCCCC(=O)O)C(=O)O)C(=O)O)NC(=O)[C@H](Cc1ccc(O)cc1)NC(=O)[C@H](Cc1ccc(O)cc1)NC(=O)[C@H](CCCNC(=N)N)NC(=O)[C@H](CC(N)=O)NC(=O)[C@H](Cc1c[nH]c2ccccc12)NC(=O)[C@H](CCC(=O)O)NC(=O)[C@H](CCCCN)NC(=O)[C@@H]1CCCN1C(=O)[C@H](CO)NC(=O)[C@H](C)NC(=O)[C@H](CC(=O)O)NC(=O)[C@H](CCC(=O)O)NC(=O)CNC(=O)[C@@H]1CCCN1C(=O)[C@H](CCCCN)NC(=O)[C@H](CCC(=O)O)NC(=O)[C@@H]1CCCN1C(=O)[C@H](CCCCN)NC(=O)[C@@H]1CCCN1)C(=O)N[C@@H](CCCNC(=N)N)C(=O)N[C@@H](Cc1c[nH]cn1)C(=O)N[C@@H](Cc1ccc(O)cc1)C(=O)N[C@@H](CC(C)C)C(=O)N[C@@H](CC(N)=O)C(=O)N[C@@H](Cc1c[nH]c2ccccc12)C(=O)N[C@@H](CC(C)C)C(=O)N[C@H](C(=O)N[C@@H](CCCNC(=N)N)C(=O)N[C@@H](CCC(N)=O)C(=O)N[C@@H](CCCNC(=N)N)C(=O)N[C@@H](Cc1ccccc1)C(N)=O)[C@@H](C)O) [Compound A29] | 10.9 -Log(EC50, M) | 9 -Log(EC50, M)

Results, then the binder that gave them:

NPY2R pEC50 [1] | NPY5R pEC50 [2] | Binder
10.2 -Log(EC50, M) | 8.8 -Log(EC50, M) | PKPEKPGEDASPKEWDRYYK([γGlu-γGlu-C20 diacid])DLRHYLNWLTRQRF-NH2 (N-terminus assumed; SMILES CC(C)C[C@H](NC(=O)[C@H](CC(=O)O)NC(=O)[C@H](CCCCNC(=O)CC[C@H](NC(=O)CC[C@H](NC(=O)CCCCCCCCCCCCCCCCCCC(=O)O)C(=O)O)C(=O)O)NC(=O)[C@H](Cc1ccc(O)cc1)NC(=O)[C@H](Cc1ccc(O)cc1)NC(=O)[C@H](CCCNC(=N)N)NC(=O)[C@H](CC(=O)O)NC(=O)[C@H](Cc1c[nH]c2ccccc12)NC(=O)[C@H](CCC(=O)O)NC(=O)[C@H](CCCCN)NC(=O)[C@@H]1CCCN1C(=O)[C@H](CO)NC(=O)[C@H](C)NC(=O)[C@H](CC(=O)O)NC(=O)[C@H](CCC(=O)O)NC(=O)CNC(=O)[C@@H]1CCCN1C(=O)[C@H](CCCCN)NC(=O)[C@H](CCC(=O)O)NC(=O)[C@@H]1CCCN1C(=O)[C@H](CCCCN)NC(=O)[C@@H]1CCCN1)C(=O)N[C@@H](CCCNC(=N)N)C(=O)N[C@@H](Cc1c[nH]cn1)C(=O)N[C@@H](Cc1ccc(O)cc1)C(=O)N[C@@H](CC(C)C)C(=O)N[C@@H](CC(N)=O)C(=O)N[C@@H](Cc1c[nH]c2ccccc12)C(=O)N[C@@H](CC(C)C)C(=O)N[C@H](C(=O)N[C@@H](CCCNC(=N)N)C(=O)N[C@@H](CCC(N)=O)C(=O)N[C@@H](CCCNC(=N)N)C(=O)N[C@@H](Cc1ccccc1)C(N)=O)[C@@H](C)O) [Compound A34]
10.8 -Log(EC50, M) | 9 -Log(EC50, M) | PKPEAPGK([γGlu-γGlu-C18 diacid])DASPEEWDRYYKDLRHYLNWLTRQRF-NH2 [Compound A32]
10.4 -Log(EC50, M) | 8.9 -Log(EC50, M) | PKPEAPGK([γGlu-γGlu-C19 diacid])DASPEEWDRYYKDLRHYLNWLTRQRF-NH2 [Compound A33]
10.5 -Log(EC50, M) | 9.1 -Log(EC50, M) | PKPEK([γGlu-γGlu-C18 diacid])PGEDASPKEWDRYYKDLRHYLNWLTRQRF-NH2 (N-terminus assumed; SMILES CC(C)C[C@H](NC(=O)[C@H](CC(=O)O)NC(=O)[C@H](CCCCN)NC(=O)[C@H](Cc1ccc(O)cc1)NC(=O)[C@H](Cc1ccc(O)cc1)NC(=O)[C@H](CCCNC(=N)N)NC(=O)[C@H](CC(=O)O)NC(=O)[C@H](Cc1c[nH]c2ccccc12)NC(=O)[C@H](CCC(=O)O)NC(=O)[C@H](CCCCN)NC(=O)[C@@H]1CCCN1C(=O)[C@H](CO)NC(=O)[C@H](C)NC(=O)[C@H](CC(=O)O)NC(=O)[C@H](CCC(=O)O)NC(=O)CNC(=O)[C@@H]1CCCN1C(=O)[C@H](CCCCNC(=O)CC[C@H](NC(=O)CC[C@H](NC(=O)CCCCCCCCCCCCCCCCC(=O)O)C(=O)O)C(=O)O)NC(=O)[C@H](CCC(=O)O)NC(=O)[C@@H]1CCCN1C(=O)[C@H](CCCCN)NC(=O)[C@@H]1CCCN1)C(=O)N[C@@H](CCCNC(=N)N)C(=O)N[C@@H](Cc1c[nH]cn1)C(=O)N[C@@H](Cc1ccc(O)cc1)C(=O)N[C@@H](CC(C)C)C(=O)N[C@@H](CC(N)=O)C(=O)N[C@@H](Cc1c[nH]c2ccccc12)C(=O)N[C@@H](CC(C)C)C(=O)N[C@H](C(=O)N[C@@H](CCCNC(=N)N)C(=O)N[C@@H](CCC(N)=O)C(=O)N[C@@H](CCCNC(=N)N)C(=O)N[C@@H](Cc1ccccc1)C(N)=O)[C@@H](C)O) [Compound A35]
